Key:
Experiment in all cases: IP/MS, LZTR1 wild type-FLAG, U87
[1] = target: RNF213 (human, UniProt Q63HN8 1-5207, limits assumed)
Method in brief: (§1)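 Gel slices were reduced with 5 mM DTT, alkylated with 11 mM IAA and digested overnight at 37° C. with trypsin. Peptides were analysed on an Orbitrap Fusion Tribrid by LC-MS/MS.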

[2] = target: KDM5C (human, UniProt P41229 1-1560, limits assumed)
Method in brief: as §1

[3] = target: TRIO (human, UniProt O75962 1-3097, limits assumed)
Method in brief: as §1

[4] = target: ARHGEF28 (human, UniProt Q8N1W1 1-1705, limits assumed)
Method in brief: as §1

[5] = target: T1, FBX038 (human, UniProt Q6PIJ6 1-1188, limits assumed)
T1 construct: Printed with a zero; probably FBXO38
T1 sequence (looked up): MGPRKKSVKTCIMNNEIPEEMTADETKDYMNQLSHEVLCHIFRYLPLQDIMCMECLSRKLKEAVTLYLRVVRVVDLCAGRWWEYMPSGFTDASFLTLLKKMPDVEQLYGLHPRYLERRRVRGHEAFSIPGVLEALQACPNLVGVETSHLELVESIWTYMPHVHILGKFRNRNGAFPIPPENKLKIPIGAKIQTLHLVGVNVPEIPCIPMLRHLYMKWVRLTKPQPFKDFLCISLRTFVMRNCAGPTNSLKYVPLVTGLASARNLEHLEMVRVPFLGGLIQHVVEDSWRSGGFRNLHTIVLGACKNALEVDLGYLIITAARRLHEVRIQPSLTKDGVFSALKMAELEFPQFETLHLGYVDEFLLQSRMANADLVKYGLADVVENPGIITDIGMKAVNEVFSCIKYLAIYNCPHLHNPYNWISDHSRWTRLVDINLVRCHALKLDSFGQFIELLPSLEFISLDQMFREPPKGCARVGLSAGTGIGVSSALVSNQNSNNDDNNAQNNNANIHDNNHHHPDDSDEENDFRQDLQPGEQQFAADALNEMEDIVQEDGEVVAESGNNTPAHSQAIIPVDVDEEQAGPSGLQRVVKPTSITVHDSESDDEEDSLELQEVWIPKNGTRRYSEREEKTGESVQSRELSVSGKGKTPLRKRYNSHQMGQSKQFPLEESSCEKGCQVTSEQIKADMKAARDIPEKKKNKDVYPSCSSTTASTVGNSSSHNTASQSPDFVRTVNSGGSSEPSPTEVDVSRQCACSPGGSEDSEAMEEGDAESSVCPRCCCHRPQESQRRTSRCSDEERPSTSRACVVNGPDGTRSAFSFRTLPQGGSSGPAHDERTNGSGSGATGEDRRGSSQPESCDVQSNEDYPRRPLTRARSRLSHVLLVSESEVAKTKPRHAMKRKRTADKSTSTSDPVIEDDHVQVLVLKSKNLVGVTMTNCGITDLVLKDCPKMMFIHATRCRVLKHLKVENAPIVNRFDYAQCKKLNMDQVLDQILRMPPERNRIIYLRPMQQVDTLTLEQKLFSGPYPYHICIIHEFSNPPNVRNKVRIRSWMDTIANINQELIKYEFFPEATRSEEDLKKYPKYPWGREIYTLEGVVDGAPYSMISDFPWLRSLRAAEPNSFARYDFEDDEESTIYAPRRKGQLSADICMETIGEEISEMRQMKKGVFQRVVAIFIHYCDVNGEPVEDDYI
Method in brief: as §1

Sequence of KDM5C (P41229 whole entry): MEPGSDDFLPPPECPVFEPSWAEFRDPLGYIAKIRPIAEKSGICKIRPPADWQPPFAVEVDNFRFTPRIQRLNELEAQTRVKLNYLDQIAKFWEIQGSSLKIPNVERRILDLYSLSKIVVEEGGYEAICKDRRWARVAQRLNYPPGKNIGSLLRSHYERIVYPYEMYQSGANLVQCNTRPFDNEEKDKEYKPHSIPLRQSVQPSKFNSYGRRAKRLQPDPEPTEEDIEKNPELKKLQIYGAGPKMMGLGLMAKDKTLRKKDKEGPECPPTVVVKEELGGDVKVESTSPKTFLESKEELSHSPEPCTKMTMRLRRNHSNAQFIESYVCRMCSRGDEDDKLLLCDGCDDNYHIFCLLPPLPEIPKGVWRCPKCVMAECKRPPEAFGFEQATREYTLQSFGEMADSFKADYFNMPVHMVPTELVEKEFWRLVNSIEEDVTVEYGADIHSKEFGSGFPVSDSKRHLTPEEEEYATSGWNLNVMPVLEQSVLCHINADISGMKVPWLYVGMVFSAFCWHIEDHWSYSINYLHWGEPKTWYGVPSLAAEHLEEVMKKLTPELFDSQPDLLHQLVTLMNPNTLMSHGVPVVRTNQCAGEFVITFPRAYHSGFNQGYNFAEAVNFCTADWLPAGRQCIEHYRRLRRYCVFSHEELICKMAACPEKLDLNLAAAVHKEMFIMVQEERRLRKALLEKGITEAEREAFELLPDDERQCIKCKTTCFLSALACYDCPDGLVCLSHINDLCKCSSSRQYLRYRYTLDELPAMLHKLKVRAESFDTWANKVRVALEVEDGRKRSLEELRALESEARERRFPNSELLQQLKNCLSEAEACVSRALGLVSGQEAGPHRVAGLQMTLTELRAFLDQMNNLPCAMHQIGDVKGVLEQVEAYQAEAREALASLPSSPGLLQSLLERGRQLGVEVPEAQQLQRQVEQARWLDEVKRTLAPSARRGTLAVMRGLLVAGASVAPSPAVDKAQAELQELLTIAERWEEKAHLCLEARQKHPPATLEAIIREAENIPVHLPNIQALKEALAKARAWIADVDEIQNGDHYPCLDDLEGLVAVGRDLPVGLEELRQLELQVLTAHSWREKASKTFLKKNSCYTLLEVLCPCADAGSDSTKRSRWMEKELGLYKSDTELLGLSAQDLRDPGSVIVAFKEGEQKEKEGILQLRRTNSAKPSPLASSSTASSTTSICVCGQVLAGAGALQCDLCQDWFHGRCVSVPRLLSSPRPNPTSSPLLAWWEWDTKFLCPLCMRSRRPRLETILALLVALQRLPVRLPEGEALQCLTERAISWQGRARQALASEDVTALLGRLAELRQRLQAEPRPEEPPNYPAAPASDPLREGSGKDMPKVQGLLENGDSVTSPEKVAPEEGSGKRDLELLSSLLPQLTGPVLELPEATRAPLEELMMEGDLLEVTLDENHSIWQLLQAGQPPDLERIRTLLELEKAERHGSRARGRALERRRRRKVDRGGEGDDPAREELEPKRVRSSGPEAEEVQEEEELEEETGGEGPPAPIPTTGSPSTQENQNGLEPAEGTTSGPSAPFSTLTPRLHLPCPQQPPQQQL
Sequence of ARHGEF28 (Q8N1W1 whole entry): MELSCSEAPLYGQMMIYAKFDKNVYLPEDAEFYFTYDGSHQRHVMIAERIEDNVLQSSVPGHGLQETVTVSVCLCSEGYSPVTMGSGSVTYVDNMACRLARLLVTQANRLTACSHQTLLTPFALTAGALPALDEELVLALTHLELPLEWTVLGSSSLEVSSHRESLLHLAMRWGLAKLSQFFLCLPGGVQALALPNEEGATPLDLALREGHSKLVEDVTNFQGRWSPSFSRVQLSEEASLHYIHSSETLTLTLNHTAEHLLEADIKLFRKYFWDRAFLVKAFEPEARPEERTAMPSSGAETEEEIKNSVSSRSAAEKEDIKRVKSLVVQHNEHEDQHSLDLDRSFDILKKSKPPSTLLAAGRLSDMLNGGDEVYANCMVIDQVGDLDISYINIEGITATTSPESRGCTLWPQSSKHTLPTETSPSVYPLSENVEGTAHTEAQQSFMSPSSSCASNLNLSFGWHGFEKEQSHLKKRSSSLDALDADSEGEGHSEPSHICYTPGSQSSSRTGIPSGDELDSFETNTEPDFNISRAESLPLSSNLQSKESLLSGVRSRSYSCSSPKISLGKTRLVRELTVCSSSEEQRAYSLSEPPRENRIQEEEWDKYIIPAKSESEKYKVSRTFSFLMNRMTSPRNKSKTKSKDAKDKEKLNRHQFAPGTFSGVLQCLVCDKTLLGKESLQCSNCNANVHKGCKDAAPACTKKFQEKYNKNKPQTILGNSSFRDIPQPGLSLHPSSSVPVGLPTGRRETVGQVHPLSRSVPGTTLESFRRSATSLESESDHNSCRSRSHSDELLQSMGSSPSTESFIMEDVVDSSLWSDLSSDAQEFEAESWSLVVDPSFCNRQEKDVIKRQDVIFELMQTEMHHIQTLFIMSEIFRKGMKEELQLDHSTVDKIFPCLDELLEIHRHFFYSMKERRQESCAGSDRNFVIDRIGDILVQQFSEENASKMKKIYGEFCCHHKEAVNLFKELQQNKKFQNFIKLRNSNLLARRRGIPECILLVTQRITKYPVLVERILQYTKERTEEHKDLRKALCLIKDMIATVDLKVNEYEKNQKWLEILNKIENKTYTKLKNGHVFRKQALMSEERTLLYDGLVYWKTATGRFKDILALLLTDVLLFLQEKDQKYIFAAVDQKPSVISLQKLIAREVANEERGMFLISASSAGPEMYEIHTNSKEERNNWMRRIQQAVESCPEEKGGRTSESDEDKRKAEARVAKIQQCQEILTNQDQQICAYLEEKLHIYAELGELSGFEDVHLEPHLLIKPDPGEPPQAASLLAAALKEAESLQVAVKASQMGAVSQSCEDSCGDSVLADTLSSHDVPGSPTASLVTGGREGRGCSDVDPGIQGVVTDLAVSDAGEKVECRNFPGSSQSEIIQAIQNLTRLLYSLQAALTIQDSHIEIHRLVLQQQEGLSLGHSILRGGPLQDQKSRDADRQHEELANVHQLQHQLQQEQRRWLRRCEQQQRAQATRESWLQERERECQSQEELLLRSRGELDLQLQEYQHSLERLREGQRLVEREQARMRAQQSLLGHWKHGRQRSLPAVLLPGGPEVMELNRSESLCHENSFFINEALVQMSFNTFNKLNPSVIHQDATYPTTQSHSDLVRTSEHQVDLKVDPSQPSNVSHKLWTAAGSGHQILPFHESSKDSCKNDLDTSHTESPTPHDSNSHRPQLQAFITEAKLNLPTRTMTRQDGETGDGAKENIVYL

binding result [1]: binds
binding result [2]: binds
binding result [3]: binds
binding result [4]: binds
binding result [5]: binds
B1: LZTR1-FLAG (other, human, UniProt Q8N653 1-840, looked up)
chain: MAGPGSTGGQIGAAALAGGARSKVAPSVDFDHSCSDSVEYLTLNFGPFETVHRWRRLPPCDEFVGARRSKHTVVAYKDAIYVFGGDNGKTMLNDLLRFDVKDCSWCRAFTTGTPPAPRYHHSAVVYGSSMFVFGGYTGDIYSNSNLKNKNDLFEYKFATGQWTEWKIEGRLPVARSAHGATVYSDKLWIFAGYDGNARLNDMWTIGLQDRELTCWEEVAQSGEIPPSCCNFPVAVCRDKMFVFSGQSGAKITNNLFQFEFKDKTWTRIPTEHLLRGSPPPPQRRYGHTMVAFDRHLYVFGGAADNTLPNELHCYDVDFQTWEVVQPSSDSEVGGAEVPERACASEEVPTLTYEERVGFKKSRDVFGLDFGTTSAKQPTQPASELPSGRLFHAAAVISDAMYIFGGTVDNNIRSGEMYRFQFSCYPKCTLHEDYGRLWESRQFCDVEFVLGEKEECVQGHVAIVTARSRWLRRKITQARERLAQKLEQEAAPVPREAPGVAAGGARPPLLHVAIREAEARPFEVLMQFLYTDKIKYPRKGHVEDVLLIMDVYKLALSFQLCRLEQLCRQYIEASVDLQNVLVVCESAARLQLSQLKEHCLNFVVKESHFNQVIMMKEFERLSSPLIVEIVRRKQQPPPRTPLDQPVDIGTSLIQDMKAYLEGAGAEFCDITLLLDGHPRPAHKAILAARSSYFEAMFRSFMPEDGQVNISIGEMVPSRQAFESMLRYIYYGEVNMPPEDSLYLFAAPYYYGFYNNRLQAYCKQNLEMNVTVQNVLQILEAADKTQALDMKRHCLHIIVHQFTKVSKLPTLRSLSQQLLLDIIDSLASHISDKQCAELGADI
notes: Expressed in HEK 293T, HeLa or U87 cells; used as cell lysate; also called LZTR1 wild type-FLAG; LZTR1 WT; not shown: FLAG tag at the C-terminus
